Measurements published in patent publication US8785391B2, “Compound and method for treatment of alzheimer's disease and familial dementia” (Alphabeta AB, priority 2010, dated 2014).

How the values were obtained:
recombinant Bri2(90-236) = biological target: T1, recombinant Bri2(90-236) (Homo sapiens, UniProt Q9Y287); test: ESI-MS binding of peptides to recombinant Bri2(90-236) (substrate specificity); conditions: 20 μM Bri2(90-236); for complex formation of peptide with recombinant Bri2(90-236): 50 μM peptide (peptide/protein ratio 2.5)
T1 construct: His6 (N, cleaved yes); thioredoxin (N, cleaved yes); made in house; host or cells: E. coli Origami(DE3)pLysS, pET-32c vector
T1 sequence (Q9Y287 90-236): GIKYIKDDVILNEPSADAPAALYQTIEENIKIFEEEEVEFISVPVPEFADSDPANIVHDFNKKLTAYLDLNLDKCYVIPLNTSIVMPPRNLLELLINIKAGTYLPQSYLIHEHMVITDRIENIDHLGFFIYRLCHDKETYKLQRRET
Protocol: Prior to electrospray ionization mass spectrometry (ESI-MS), purified Bri2(90-236) (SEQ ID NO: 2) was rebuffered into 10 mM ammonium acetate, pH 7.0, using spin columns with a 3 kDa cut-off limit (Nanosep, Pall Corp., East Hills, N.Y., USA). Protein and peptides were mixed at 22° C. directly before analysis at a final protein concentration of 20 μM and a final peptide concentration of 50 μM. Data was acquired using a QTOF Ultima API mass spectrometer (Waters, Milford, Mass., USA) equipped with a Z-spray source operated in the positive-ion mode. Samples were introduced via nano-electrospray using metal-plated borosilicate glass capillary needles (Proxeon, Denmark). The source temperature was 80° C., the capillary voltage 1.7 kV, and the cone and RF lens 1 potentials were 100 and 38 V, respectively. The mass spectrometer was operated in single-reflector mode at a resolution of 10 000 (full width half maximum definition), and the mass scale was calibrated using myoglobin. Scans were acquired at a rate of 1 scan per 2 sec between 500 and 4000 m/z. The collision gas was argon at 5.2×10^−5 mbar. Mass spectra were smoothed using the Waters MassLynx software.
All peptides, with the exception of KFFEYNGKKFFE (SEQ ID NO: 15), ABri23 (SEQ ID NO: 4) and Aβ1-40 (SEQ ID NO: 11), were purchased from Thermo Electron (Darmstadt, Germany). KFFEYNGKKFFE was purchased from Interactiva (Ulm, Germany) and Aβ1-40 and disulfide-linked ABri23 were from Bachem (Bubendorf, Switzerland).
Peptides, except for KFFEYNGKKFFE, ABri23 and Aβ1-40, were acetylated at the N-terminus and amidated at the C-terminus. The compositions of all peptides were verified by ESI-MS and amino acid analysis. Peptide YYY was dissolved to a final concentration of 10 mM in 30% acetonitrile. VVV, FFF and LLL were dissolved in 50% isopropanol to a final concentration of 10 mM. KKK, GGG and AAA were dissolved in water to a final concentration of 10 mM, while KFFEYNGKKFFE and ABri23 were dissolved in water to final concentrations of 5.6 mM and 1 mM, respectively. All peptide samples were stored at −20° C., except for Aβ1-40 which was dissolved to a final concentration of 1 mM in water directly prior to analysis.
To further investigate the substrate specificity of Bri2(90-236), homotripeptides with aromatic (YYY, FFF), hydrophobic (VVV, LLL), charged (KKK) or small uncharged (AAA, GGG) side-chains, were employed to study binding, under maintained water solubility. […] The peptide sequences are denoted in each spectrum. Symbols * and ** indicate peaks corresponding to recombinant Bri2(90-236) with one or two peptide ligands, respectively. […] Bri2(90-236) also binds the peptide KFFEYNGKKFFE (FIG. 6).

Aβ1-40 = biological target: T2, Aβ1-40 (Homo sapiens, UniProt P05067); assay type: biochemical; conditions: 0.1 and 1 molar equivalents to Aβ1-40; compared to the same amounts of Bri2(90-236); data not shown
T2 construct: made in house; host or cells: E. coli
T2 sequence (P05067 672-711): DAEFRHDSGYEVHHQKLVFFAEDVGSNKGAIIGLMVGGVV
Description: (§1) Aβ1-40 (SEQ ID NO: 11) and Aβ1-42 (SEQ ID NO: 12) were expressed in E. coli from synthetic genes and purified in batch format using ion exchange and size exclusion steps as described in Walsh et al., FEBS J. 2009, 276, 1266-1281, which results in highly pure monomeric peptide. Purified peptide was divided into 20-30 identical aliquots and frozen. Monomer was then isolated by gel filtration of an aliquot of purified peptide just prior to setting up each of the experiments listed below to remove traces of aggregate formed during freezing and thawing and to exchange buffer to the one used in the respective experiment. Monomer was collected in low-bind Ep-tubes ([…]) on ice, and the concentration was determined by absorbance or amino acid analysis after acid hydrolysis. The monomer was used as is or diluted to the desired concentration for the respective experiment. Bri2(90-236) (SEQ ID NO: 2) was expressed and purified as described in Example 1. Aggregation kinetics were studied by recording the Thioflavin T (ThT) fluorescence intensity as a function of time in a plate reader (FluoStar Omega from BMG Labtech, Offenberg, Germany). The fluorescence was recorded using bottom optics in half-area 96-well PEG-coated black polystyrene plates with clear bottom (Corning 3881) using 440 nm excitation filter and 480 nm emission filter. Aβ monomer was isolated by gel filtration as above in 20 mM Na-phosphate, 200 μM EDTA, 0.02% NaN3 (at pH 7.4 in the case of Aβ1-40 and at pH 8.0 for Aβ1-42) and diluted to 6 or 8 μM in the case of Aβ1-40 and 3 μM in the case of Aβ1-42 in the same buffer and supplemented with 20 μM ThT from a 2 mM stock. To each well in the 96-well plate was first added either 10 μl buffer (20 mM Tris/HCl pH 7.4) or 10 μl of Bri2(90-236) protein or control protein at ten times the desired final concentration in 20 mM Tris/HCl pH 7.4. To each well was then added 90 μl of the ice-cold Aβ monomer solution, and the plate was immediately placed in the plate reader at 37° C., with fluorescence read every 6 minutes with continuous shaking at 100 rpm between readings. Aβ1-40 was studied alone or with Bri2(90-236) at a concentration ranging from 60 nM to 6 μM. Aβ1-42 was studied alone or with Bri2(90-236) at a concentration ranging from 20 nM to 6 μM.

Aβ1-42 = biological target: T3, Aβ1-42 (Homo sapiens, UniProt P05067); test: ThT aggregation kinetics of Aβ1-42 (Example 4); assay type: biochemical; conditions: 0.1 and 1 molar equivalents to Aβ1-42; compared to the same amounts of Bri2(90-236); data not shown
T3 construct: made in house; host or cells: E. coli
T3 sequence (P05067 672-713): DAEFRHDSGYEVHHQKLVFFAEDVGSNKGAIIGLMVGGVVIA
Description: as §1, with “Aβ1-40 was studied alone or with Bri2(90-236) at a concentration ranging from 60 nM to 6 μM. Aβ1-42 was studied alone or with Bri2(90-236) at a concentration ranging from 20 nM to 6 μM.” left out

Substance | complex formation of peptide with recombinant Bri2(90-236) (recombinant Bri2(90-236)) | also measured
AAA: homotripeptide with small uncharged side-chains | No interactions were observed | –
KFFEYNGKKFFE | found to form complexes | –
YYY: homotripeptide with aromatic side-chains (Ac-Tyr-Tyr-Tyr-NH2) | found to form complexes | number of peptide molecules per Bri2(90-236) in complexes (recombinant Bri2(90-236); 50 μM peptide): one or two
VVV: homotripeptide with hydrophobic side-chains (Ac-Val-Val-Val-NH2) | No interactions were observed | –
KKK: homotripeptide with charged side-chains (Ac-Lys-Lys-Lys-NH2) | No interactions were observed | –
GGG: homotripeptide with small uncharged side-chains (Ac-Gly-Gly-Gly-NH2) | No interactions were observed | –
LLL: homotripeptide with hydrophobic side-chains (Ac-Leu-Leu-Leu-NH2) | No interactions were observed | –
FFF: homotripeptide with aromatic side-chains (Ac-Phe-Phe-Phe-NH2) | No interactions were observed | –
cystatin [reference compound] | – | effects of control protein on Aβ1-40 aggregation (ThT assay) (Aβ1-40): small; effects of control protein on Aβ1-42 aggregation (ThT assay) (Aβ1-42): small
